According to patent US20040248211A1, “ICAM-related protein” (priority 1992, published 2004):

Experiments:
[1] = target: T1, Protein 1 (ICAM-R domain 1 fused to ICAM-1) (Homo sapiens, UniProt P05362+P32942, A175T/A179V/A227S/A249V/A265P/D143G/D183H/D240V/E159K/E168G/E234D/F135L/F230V/G202E/M196L/M262R/P127S/P187N/P238T/Q133K/Q164E/Q197R/R211Y/R214Q/R224Q/S145A/S149N/S162K/S180R/S236Q/T148A/T242S/V205E/V220A/W157G/W237G/Y255H); experiment: FACS binding to COS cell transfectants; conditions: for percent positive COS cell transfectants, Protein 1: antibody 5.0 ug/ml
T1 construct: immunoglobulin-like domain of ICAM-R (residues 1 to 93) fused to ICAM-1 (residue 117 to 532); ICAM-1 residue 117 to 532 (fusion partner in the same polypeptide); expressed in transfected cells; host or cells: COS cells, plasmid pcDNA1Amp.RD1.ID2-5
Excerpt: (§1) FIG. 7 is a diagram of the chimeric proteins whose construction is outlined below. Protein number 1 contains the amino-terminal immunoglobulin-like domain of ICAM-R (residues 1 to 93) fused to ICAM-1 (residue 117 to 532). Protein number 2 contains the first two amino terminal immunoglobulin-like domains of ICAM-R (residues 1 to 190) fused to ICAM-1 (residues 216 to 532). Protein number 3 contains the first three immunoglobulin-like domains of ICAM-R (residues 1 to 291) fused to ICAM-1 (residues 317 to 532).
(§2) For the anti-ICAM-R monoclonal antibody binding assay, COS cells transfected with constructs encoding the ICAM-R chimeric proteins or control constructs were removed from the plates by EDTA treatment and aliquoted at 2.5×10^5 cells per well in a 96-well round bottom plate. Cells were washed 3 times with ice cold washing buffer (PBS containing 1% BSA and 0.05% sodium azide). Anti-ICAM-R monoclonal antibody was applied at 5.0 ug/ml in 50 ul final volume and incubated on ice for 30 minutes. Cells were then washed three times with cold washing buffer and incubated with the FITC labeled secondary antibody (sheep anti-mouse IgG F(ab′)2) at a 1:100 dilution on ice for 30 minutes in dark in 50 ul final volume. After the incubation, cells were washed again for three times in the ice cold washing buffer and resuspended in 200 ul of 1% paraformaldehyde. The samples were analyzed on a Becton-Dickinson FACScan instrument. Results of the assay are given below in Table 5 as percent positive COS cell transfectants, wherein MOPC 21 (IgG1) and UPC 10 (IgG2a) are isotype matched controls, 18E3D is an ICAM-1 specific monoclonal antibody and ICR-1.1 to ICR-9.2 are ICAM-R specific monoclonal antibodies. The reactivities of monoclonal antibodies ICR-1.1 through ICR-9.2 were assayed in a different experiment than monoclonal antibodies ICR-12.1 through ICR-17.1.

[2] = target: T2, Protein 2 (ICAM-R domains 1-2 fused to ICAM-1) (Homo sapiens, UniProt P05362+P32942, A227S/A249V/A265P/D240V/E234D/F230V/M262R/P219L/P238T/R224Q/S236Q/T242S/V220A/W237G/Y255H); experiment: FACS binding to COS cell transfectants; conditions: antibody 5.0 ug/ml
T2 construct: domains of ICAM-R (residues 1 to 190) fused to ICAM-1 (residues 216 to 532); ICAM-1 residues 216 to 532 (fusion partner in the same polypeptide); expressed in transfected cells; host or cells: COS cells, plasmid pcDNA1Amp.RD1-2.1D3-5
Excerpt: as §1, §2

[3] = system: PBMC responder and irradiated stimulator cells; experiment: Alloantigen-induced lymphocyte proliferation; format: cell-based, human
Description: Monoclonal antibodies to ICAM-R were also tested for the ability to alter lymphocyte proliferation (as measured by ^3H-thymidine incorporation) in response to alloantigenic irradiated stimulator cells. Responder cells were prepared by obtaining PBMC from a normal donor using Histopaque centrifugation as described above. To prepare stimulator cells, PBMC from a second, unrelated donor were concurrently isolated and irradiated at 1500R by exposure to a gamma emitting cesium source. Two hundred thousand responder cells and 2×10^5 irradiated stimulator cells (suspended in culture medium) were then added to wells containing soluble or immobilized ICR-1.1, ICR-2.1, ICR-3.1, ICR-4.2, ICR-5.1, ICR-6.2, ICR-7.1, ICR-8.1, ICR-9.2, immobilized B-H9, immobilized p10.1, or soluble 515F (anti-rat CD18) antibody and incubated for 6 days at 37° C., 5% CO2. Lymphocyte proliferation (^3H-thymidine incorporation) was assessed in the last 18-24 hours of culture.

[4] = system: U937 cells; experiment: IL-8 release from U937; format: cell-based, human
Description: Monocytes were isolated by elutriation from peripheral blood of normal donors. […] After blocking free sites, the cells were placed into the wells in medium. […] Those cells plated in wells treated with BSA plus or minus LPS were rounded and not spread. After 8 or 18 hours of incubation at 37° C., the medium was removed and assayed for IL-8 immunoreactivity. […] By 18 hours, IL-8 levels in media from ICR monoclonal antibody wells were much elevated over control levels. […] Similar experiments with monocytic cell lines (U937 and HL60) to determine if ICR monoclonal antibody can induce IL-8 release were conducted. U937 cells responded to each of the ICR monoclonal antibody treated wells by releasing IL-8 into the conditioned medium. […] No detectable morphological changes were detected with the U937 or HL60 cells.

[5] = system: Monocytes; experiment: MCP-1 release from monocytes; format: cell-based, human; conditions: for release of MCP-1 into conditioned medium: 8 and 18 hour time points
Description: Monocytes were isolated by elutriation from peripheral blood of normal donors. Plastic wells were coated with ICR-1.1, 2.1, 8.1 or albumin alone (10 μg/ml). After blocking free sites, the cells were placed into the wells in medium. After 1 hour in culture, the cells that were in the ICR Mab treated wells had flattened onto the substratum. Those cells plated in wells treated with BSA plus or minus LPS were rounded and not spread. After 8 or 18 hours of incubation at 37° C., the medium was removed and assayed for IL-8 immunoreactivity. […] By 18 hours, IL-8 levels in media from ICR monoclonal antibody wells were much elevated over control levels. ICR-1.1 induced levels increased ten times, ICR-2.1 induced levels were four times and ICR-8.1 induced levels were two times over the levels seen at the 8 hour time point. Similar experiments with monocytic cell lines (U937 and HL60) to determine if ICR monoclonal antibody can induce IL-8 release were conducted. U937 cells responded to each of the ICR monoclonal antibody treated wells by releasing IL-8 into the conditioned medium. […] No detectable morphological changes were detected with the U937 or HL60 cells.
Monocytes isolated and treated as described above were tested for release of MCP-1 at 8 and 18 hour time points. […] MCP-1 release elicited by ICR-1.1 peaked at 8 hours. Release from Mab ICR-2.1 and ICR-8.1 was not detected until 18 hours when it was 4-fold greater than the peak 1.1 induction level.

T1 sequence (P32942+P05362 fused with the stated changes): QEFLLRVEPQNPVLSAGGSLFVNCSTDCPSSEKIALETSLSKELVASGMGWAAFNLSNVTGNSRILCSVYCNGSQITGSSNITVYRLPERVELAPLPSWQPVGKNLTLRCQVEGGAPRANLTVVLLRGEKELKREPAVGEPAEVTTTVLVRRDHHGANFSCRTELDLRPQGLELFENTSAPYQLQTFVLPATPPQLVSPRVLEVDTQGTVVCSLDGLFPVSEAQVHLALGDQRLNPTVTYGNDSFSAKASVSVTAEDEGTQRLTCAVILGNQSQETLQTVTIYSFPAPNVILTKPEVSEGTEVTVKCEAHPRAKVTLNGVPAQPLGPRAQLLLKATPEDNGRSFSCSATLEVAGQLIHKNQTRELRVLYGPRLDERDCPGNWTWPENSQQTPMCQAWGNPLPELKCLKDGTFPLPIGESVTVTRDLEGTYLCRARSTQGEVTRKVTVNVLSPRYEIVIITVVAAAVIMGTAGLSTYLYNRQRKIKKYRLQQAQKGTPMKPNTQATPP
T2 sequence (P32942+P05362 fused with the stated changes): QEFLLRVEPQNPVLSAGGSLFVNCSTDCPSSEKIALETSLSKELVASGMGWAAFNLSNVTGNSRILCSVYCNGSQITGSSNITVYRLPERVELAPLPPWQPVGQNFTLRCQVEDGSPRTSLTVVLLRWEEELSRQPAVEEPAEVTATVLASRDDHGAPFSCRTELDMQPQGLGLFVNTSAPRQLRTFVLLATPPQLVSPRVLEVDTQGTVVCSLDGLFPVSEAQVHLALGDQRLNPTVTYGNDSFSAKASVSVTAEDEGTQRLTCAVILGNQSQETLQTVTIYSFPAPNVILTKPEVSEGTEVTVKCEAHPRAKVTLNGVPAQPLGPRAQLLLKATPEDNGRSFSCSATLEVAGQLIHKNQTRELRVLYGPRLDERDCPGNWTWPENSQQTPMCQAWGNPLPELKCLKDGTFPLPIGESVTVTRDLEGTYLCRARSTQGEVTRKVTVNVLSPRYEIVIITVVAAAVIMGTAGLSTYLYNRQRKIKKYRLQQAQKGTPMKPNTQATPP

Molecule | recognition of hybrid with only ICAM-R domain 1 (domain 1 specific) [1] | percent positive COS cell transfectants, Protein 1 [1] [%] | percent positive COS cell transfectants, Protein 2 [2] [%] | Blockade of Lymphocyte Activation Alloantigen [3] | alloantigen proliferation, immobilized antibody ([3]; 6 days) | IL-8 release relative to ICR-4.2, 6.2 or 8.1 treated wells [4] [fold] | time of peak MCP-1 release [5] [h] | release of MCP-1 into conditioned medium [5] | alloantigen proliferation, soluble antibody ([3]; 6 days) | IL-8 release relative to the BSA control [4] | MCP-1 release at 18 hours relative to the peak ICR-1.1 induction level ([5]; not detected until 18 hours) [fold]
ICR-1.1: anti-ICAM-R monoclonal antibody, IgG2a, domain 1, ATCC HB 11053 (antibody, V domains shown) VH: QVQLQQSGAELAKPGASVKMSCKASGYTFTVYWMHWVKQRPGQGLEWIGYINPNTDYTEYNQRFQDKATLTADKSSSTAYMQLSSLTSEDSAVYYCARWGGNSYGLDYWGQGTSVTVSS VL: QIVLTQSPALMSASPGEKVTMTCSASSSVSYIYWYQQKPRSSPKPWIYLTSNLASGVPARFSGSGSGASYSLTISIMEAEDAATYYCQQWKSIPLTFGAGTKLELK | recognize the hybrid molecule | 60.27 | 68.32 | YES | consistently reduced proliferation | 3 | 8 | induced release of MCP-1 | – | – | –
ICR-8.1: anti-ICAM-R monoclonal antibody, IgG1, domain 1, ATCC HB 11232 (antibody, V domains shown) VH: EIQLQQTGPELVKPGASVKISCKASGYSFTDCIILWVKQSHGKGLEWIGKINPYFGTTTYNLKFKGKATLTVDKSSSTAHMQLNSLTSEDSAVYYCARKEAYPDAMDYWGQGTSVTVSS VL: DAVMTQTPLSLPVSLGDQASISCRSSQSLVHSNGDTYLHWYLQKPGQSPQLLIYKVSNRFSGVPDRFSGSGSGTDFTLKLSRVEAEDLGVYFCSQSTHVPYTFGGGTKLEIK | recognize the hybrid molecule | 57.34 | 64.25 | YES | consistently reduced proliferation | – | – | induced release of MCP-1 | inhibited alloantigen-stimulated proliferation | twice | 4
